Laboratory results reported in the RNAGym collection of RNA variant scans (doi:10.1073/pnas.2313332121).
Fewer inactive variants are shown than the library holds.

B1: TPR 5TU (parent)
chain: GGAUCUUCUCGAUCUAACAAAAAAGACAAAUCUGCCACAAAGCUUGAGAGCAUCUUCGGAUGCAGAGGCGGCAGCCUUCGGUGGCGCGAUAGCGCCAACGUUCUCAACUAUGACACGCAAAACGCGUGCUCCGUUGAAUGGAGUUUAUCAUG

Variants of: B1
Experiment: polymerase ribozyme fitness, log enrichment relative to wild type (log ratio); higher = more active; in vitro selection for triplet polymerase activity
Method in brief: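 PCR was used to build mutant libraries for each subunit of a heterodimeric triplet polymerase ribozyme, which were then transcribed. A single in vitro selection round, in triplicate, used a frozen incubation at −7 °C and recovered extended constructs by gel excision, streptavidin beads and RT-PCR. Fitness is the logarithm of genotype enrichment relative to wild-type enrichment, averaged over replicates with inverse-variance weights. The logarithm is base 2, and after Illumina sequencing only genotypes with ≥10 input reads and ≥1 read per output were kept.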

Variant	polymerase ribozyme fitness (log ratio)
A23U C57A G92C C149G	≤ -4.2
A24U C57A A89U C95U C118U G143U	≤ -4.2
A24U A37U C51A C87U A98U G100U	≤ -4.2
A24G G141C G143C	≤ -4.2
A22U A73G U82A	1.72
A23U A29G U101C	≤ -4.2
G25C A26U A30U A39U U56G U77A A138U	≤ -4.2
A22U G84U	-1.67
A22U A52U U78A C85U U127A A137C	≤ -4.2
A23U U44A U55A A122U	≤ -4.2
G25C A28G G80C G83A	-4.19
A24U G83U C85G G126U	≤ -4.2
G25C G58A C72A G80A C87A C118G	≤ -4.2
A24U A52G C79G G94A A107G	≤ -4.2
A22U A26C A47C C57A G62A G86A A89U A106U C108G	≤ -4.2
A22G C38U C95U A107C G128A	≤ -4.2
A22U U55G A73C G86A C116A A142U	≤ -4.2
A24G G25A G84A C125G G152A	≤ -4.2
G25C U61A C75G A91G A97U	-4.05
A24U G46C A60C U102G	≤ -4.2
A22U A150C	-2.85

Variant	polymerase ribozyme fitness (log ratio)
A22G U144C	0.51
A23U A29C C85G A110G G112U	≤ -4.2
A24G U31C	-3.52
A22U A24U U44A C93A C96U C118U	≤ -4.2
A23G A49U A60G A119U A120U A122C	-3.98
A24G C57A G59U C75A U90G C103G C108U A110C G133U G141C	≤ -4.2
A22U C35A U55A U56G G74A C85G	≤ -4.2
A22U A39U U44G C51A G141C U146C A150G	≤ -4.2
A22U A106G	1.21
A22U C43U A47C A91C C108U A115U A121C	≤ -4.2
A24C A28G U53A U134A	≤ -4.2
A23U C85A	≤ -4.2
A24G C32A C38A U45A C57U A106U C118U	≤ -4.2
G25A U56A	-1.67
A24C G46A C116G	-4.14
A23C U144C	-4.15
A24G A47G G48A C75U G86A	≤ -4.2
A22U G140A	-2.83
A23G C85U	-2.38
A24U U45A	-3
A23G A29G C95G G152U	-3.84

Variant	polymerase ribozyme fitness (log ratio)
A23U U33A U45A G46A C96U	-4.15
A23U C87G A91G	≤ -4.2
A23U C38U C114U G126A	≤ -4.2
A24G G71C C79G C85A G124U U130G U148C	≤ -4.2
A24U A37G	-2.41
A23C A64G G70C	≤ -4.2
G25C A52C U53A C87U G92C A98G U104G C108G U135G	≤ -4.2
A23C U56A G86U A115G	≤ -4.2
A22U G143C	-1.09
A22U G50U C96A G136C A142G	≤ -4.2
A24G A52C G68A U151G	≤ -4.2
A24G U44A A49C U82G A122U G140C C149U	-4.02
G25A C27G A30C C32G G68A C87A A107U	≤ -4.2
A24G G92U A122G	≤ -4.2
A23G A52U C118A A122U	≤ -4.2
A23C A60G C96A C118U	≤ -4.2
A23U G80U A91U G143C A150G	≤ -4.2
A22U G58C C87U U135C	-2.68
A22U C27U G86U	-3.28
A23C A47G C96A	≤ -4.2
A24C A49U C87A G92A G140U	≤ -4.2

Variant	polymerase ribozyme fitness (log ratio)
A22U G86U	-1.05
A22U C99U U101G A115U U151G	≤ -4.2
A24U G50C C57U C79G C118G U148C	≤ -4.2
A23U C27G A37U C95G A110G G140C	-3.86
A22G G117A	1.13
A23U G68A A73U C99U	≤ -4.2
A24C C43U C93G G141U	≤ -4.2
A22U G50C U53G G88C C93U C96U C108U	≤ -4.2
A24U A60G C79G C96G U109C	≤ -4.2
A24U G50U U56G G58U C76U A122G	-4.1
A23U A29U C85A A115G G143C	≤ -4.2
A24G G62U C85U U146A	≤ -4.2
A24U A52C C87A	≤ -4.2
G25C U78G C87U G117U C118U U148A	≤ -4.2
A24U A52C	-0.457
A23G C38U U61A C69A C76U C96G C116U G117U	≤ -4.2
A22U G46A	0.387
A23G A52U	-3.51
A22U U82G C93A G124U C125U	-2.61
A24U G50U G59A	0.438
A23G G50C	-4
